± gives the standard error.
Test: background-corrected fluorescence of 3'-dye-labeled ssDNA relative to brightest sequence (3'-GCGCG) (fraction); higher = brighter dye fluorescence (less quenching)
How it was run: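 Fluorescence values are background-corrected using unlabeled oligos and expressed relative to the brightest sequence. The single-stranded DNA was made on glass slides by light-directed phosphoramidite synthesis, each of 1024 permuted pentamers ending beside a 3' Cy3 or Cy5 dye. Scans at 532 or 635 nm were taken before and after overnight ethylenediamine/ethanol deprotection, and each value averages 10 features per array and at least 3 syntheses.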

Sequence	background-corrected fluorescence (dye: Cy3 (3' terminal))	background-corrected fluorescence (dye: Cy5 (3' terminal))
TTTTTTGCTGATGATGCGCATTTTTTTTTTTTTTTACCAT	0.499 ± 0.026	0.364 ± 0.024
TTTTTTCATGATGAGCATGCTTTTTTTTTTTTTTTGCCTA [ATCCG]	0.493 ± 0.016	0.366 ± 0.039
TTTTTTGCTGCTCATCATGATTTTTTTTTTTTTTTAAGGC [CGGAA]	0.6269 ± 0.0056	0.492 ± 0.038
TTTTTGCATCATCAGCATGCTTTTTTTTTTTTTTTTGGTA [ATGGT]	0.609 ± 0.0091	0.492 ± 0.033
TTTTTTGATGCTGAGCATCATTTTTTTTTTTTTTTCACTG [GTCAC]	0.487 ± 0.028	0.398 ± 0.035
TTTTTTCATCATGATCATGCTTTTTTTTTTTTTTTGGCGA [AGCGG]	0.714 ± 0.035	0.618 ± 0.07
TTTTTGCATGAGCATGCTCATTTTTTTTTTTTTTTTCTAG [GATCT]	0.52 ± 0.027	0.401 ± 0.031
TTTTTTCATCATGCGCATGCTTTTTTTTTTTTTTTGGATA [ATAGG]	0.582 ± 0.026	0.479 ± 0.045
TTTTTTCATGATCATCATCATTTTTTTTTTTTTTTGCGGG [GGGCG]	0.701 ± 0.013	0.563 ± 0.045
TTTTTTGCTCATCATGATGATTTTTTTTTTTTTTTAGGCC [CCGGA]	0.479 ± 0.037	0.368 ± 0.064
TTTTTTGCTGCTCAGCATCATTTTTTTTTTTTTTTAAGTG [GTGAA]	0.587 ± 0.027	0.457 ± 0.042
TTTTTGCATCAGCATGATCATTTTTTTTTTTTTTTTGTCG [GCTGT]	0.552 ± 0.029	0.392 ± 0.023
TTTTTTCATCATGCGCATGATTTTTTTTTTTTTTTGGATC [CTAGG]	0.445 ± 0.019	0.35 ± 0.055
TTTTTTGATCATGATCAGCATTTTTTTTTTTTTTTCGCGT [TGCGC]	0.783 ± 0.029	0.697 ± 0.048
TTTTTTGCTGATCATGATGCTTTTTTTTTTTTTTTACGCA	0.525 ± 0.032	0.445 ± 0.028
TTTTTTCATCAGCATGCTGCTTTTTTTTTTTTTTTGGTAA [AATGG]	0.573 ± 0.022	0.458 ± 0.031
TTTTTTCATGATCAGCATGCTTTTTTTTTTTTTTTGCGTA [ATGCG]	0.604 ± 0.026	0.466 ± 0.026
TTTTTGCATGCTGATGAGCATTTTTTTTTTTTTTTTACCT [TCCAT]	0.461 ± 0.017	0.345 ± 0.023
TTTTTTGATGCTGCTGATGCTTTTTTTTTTTTTTTCAACA [ACAAC]	0.489 ± 0.0058	0.368 ± 0.022
TTTTTTCATCAGCAGCATGCTTTTTTTTTTTTTTTGGTTA [ATTGG]	0.53 ± 0.015	0.446 ± 0.071
TTTTTTCATGATGCTCATGCTTTTTTTTTTTTTTTGCAGA [AGACG]	0.682 ± 0.017	0.552 ± 0.035
TTTTTTGCTGCTGATCATGATTTTTTTTTTTTTTTAACGC [CGCAA]	0.547 ± 0.021	0.436 ± 0.057
TTTTTTCATGCTGCTCATCATTTTTTTTTTTTTTTGAAGG [GGAAG]	0.607 ± 0.026	0.512 ± 0.025

Sequence	background-corrected fluorescence (dye: Cy3 (3' terminal))	background-corrected fluorescence (dye: Cy5 (3' terminal))
TTTTTTCATCAGCATGCTCATTTTTTTTTTTTTTTGGTAG [GATGG]	0.541 ± 0.021	0.431 ± 0.046
TTTTTTGATGCGCATGCTGATTTTTTTTTTTTTTTCATAC	0.443 ± 0.024	0.314 ± 0.032
TTTTTTGCTCAGCATGAGCATTTTTTTTTTTTTTTAGTCT [TCTGA]	0.472 ± 0.018	0.368 ± 0.029
TTTTTTCAGCATGATGCTGATTTTTTTTTTTTTTTGTCAC [CACTG]	0.417 ± 0.0042	0.336 ± 0.022
TTTTTGCAGCAGCATGATCATTTTTTTTTTTTTTTTTTCG [GCTTT]	0.468 ± 0.011	0.327 ± 0.027
TTTTTTCATGCGCAGCATCATTTTTTTTTTTTTTTGATTG [GTTAG]	0.543 ± 0.0077	0.355 ± 0.024
TTTTTTGCTGAGCATGATGATTTTTTTTTTTTTTTACTCC [CCTCA]	0.378 ± 0.023	0.3 ± 0.044
TTTTTTCAGCAGCAGCATCATTTTTTTTTTTTTTTGTTTG	0.517 ± 0.028	0.33 ± 0.029
TTTTTTGATGCTGATGCTGCTTTTTTTTTTTTTTTCACAA [AACAC]	0.562 ± 0.022	0.411 ± 0.021
TTTTTTGCTCATCATCAGCATTTTTTTTTTTTTTTAGGGT [TGGGA]	0.7155 ± 0.0051	0.587 ± 0.027
TTTTTTCAGCATGAGCATCATTTTTTTTTTTTTTTGTCTG	0.54 ± 0.031	0.387 ± 0.025
TTTTTTCATGATGCTCAGCATTTTTTTTTTTTTTTGCAGT [TGACG]	0.607 ± 0.021	0.51 ± 0.055
TTTTTTGATGAGCATGCTGCTTTTTTTTTTTTTTTCCTAA [AATCC]	0.538 ± 0.015	0.432 ± 0.031
TTTTTTGCTGAGCAGCAGCATTTTTTTTTTTTTTTACTTT [TTTCA]	0.519 ± 0.022	0.37 ± 0.022
TTTTTTGATCATGCTGCGCATTTTTTTTTTTTTTTCGAAT [TAAGC]	0.599 ± 0.04	0.402 ± 0.026
TTTTTTCAGCATCATGATCATTTTTTTTTTTTTTTGTGCG [GCGTG]	0.568 ± 0.056	0.499 ± 0.028
TTTTTTCATCATGAGCATGCTTTTTTTTTTTTTTTGGCTA [ATCGG]	0.483 ± 0.016	0.42 ± 0.028
TTTTTTGATCATGATCATGCTTTTTTTTTTTTTTTCGCGA [AGCGC]	0.823 ± 0.027	0.792 ± 0.034
TTTTTTCATGCGCATGATGATTTTTTTTTTTTTTTGATCC [CCTAG]	0.398 ± 0.022	0.294 ± 0.027
TTTTTGCATGCTGCTCAGCATTTTTTTTTTTTTTTTAAGT [TGAAT]	0.663 ± 0.018	0.493 ± 0.031
TTTTTGCATCATCATGAGCATTTTTTTTTTTTTTTTGGCT [TCGGT]	0.549 ± 0.017	0.442 ± 0.053
TTTTTTGATGCTGCTGCGCATTTTTTTTTTTTTTTCAAAT [TAAAC]	0.553 ± 0.017	0.41 ± 0.061
TTTTTTGATGATCATGCTCATTTTTTTTTTTTTTTCCGAG [GAGCC]	0.593 ± 0.015	0.501 ± 0.072

Sequence	background-corrected fluorescence (dye: Cy3 (3' terminal))	background-corrected fluorescence (dye: Cy5 (3' terminal))
TTTTTTGATGCTCATGCGCATTTTTTTTTTTTTTTCAGAT [TAGAC]	0.576 ± 0.018	0.469 ± 0.021
TTTTTTGCGCATGCTGAGCATTTTTTTTTTTTTTTATACT [TCATA]	0.504 ± 0.024	0.378 ± 0.019
TTTTTGCAGCATCATGCGCATTTTTTTTTTTTTTTTTGAT [TAGTT]	0.578 ± 0.013	0.453 ± 0.03
TTTTTTGATGATGCTCATCATTTTTTTTTTTTTTTCCAGG [GGACC]	0.642 ± 0.016	0.511 ± 0.057
TTTTTGCAGCATGAGCAGCATTTTTTTTTTTTTTTTTCTT	0.481 ± 0.015	0.348 ± 0.026
TTTTTGCAGCATGCTCATCATTTTTTTTTTTTTTTTTAGG [GGATT]	0.612 ± 0.027	0.489 ± 0.054
TTTTTTGCTCATGCTGATGCTTTTTTTTTTTTTTTAGACA [ACAGA]	0.522 ± 0.06	0.383 ± 0.029
TTTTTGCATCATGATGCTGCTTTTTTTTTTTTTTTTGCAA [AACGT]	0.594 ± 0.0062	0.463 ± 0.026
TTTTTTGATGCGCATCATGATTTTTTTTTTTTTTTCATGC [CGTAC]	0.536 ± 0.028	0.395 ± 0.026
TTTTTTGATGCTCATCATCATTTTTTTTTTTTTTTCAGGG [GGGAC]	0.723 ± 0.023	0.574 ± 0.026
TTTTTTCATCAGCATCATCATTTTTTTTTTTTTTTGGTGG	0.629 ± 0.028	0.483 ± 0.055
TTTTTTGATCATCATCATCATTTTTTTTTTTTTTTCGGGG [GGGGC]	0.673 ± 0.024	0.65 ± 0.044
TTTTTTGCGCATGATGATCATTTTTTTTTTTTTTTATCCG [GCCTA]	0.518 ± 0.023	0.427 ± 0.035
TTTTTGCAGCAGCATCATGATTTTTTTTTTTTTTTTTTGC [CGTTT]	0.495 ± 0.024	0.341 ± 0.032
TTTTTTGATCAGCATGATGCTTTTTTTTTTTTTTTCGTCA [ACTGC]	0.547 ± 0.03	0.378 ± 0.032
TTTTTTGCTGCTGCTCAGCATTTTTTTTTTTTTTTAAAGT [TGAAA]	0.653 ± 0.026	0.514 ± 0.049
TTTTTTGATGATGCTGATGCTTTTTTTTTTTTTTTCCACA [ACACC]	0.472 ± 0.027	0.375 ± 0.055
TTTTTTCATGCGCATGAGCATTTTTTTTTTTTTTTGATCT [TCTAG]	0.456 ± 0.055	0.354 ± 0.017
TTTTTGCATCATCATGCTGCTTTTTTTTTTTTTTTTGGAA [AAGGT]	0.653 ± 0.024	0.557 ± 0.029
TTTTTGCATGCTGATGATGCTTTTTTTTTTTTTTTTACCA [ACCAT]	0.43 ± 0.017	0.364 ± 0.02
TTTTTGCATGATGATGCTCATTTTTTTTTTTTTTTTCCAG [GACCT]	0.47 ± 0.02	0.377 ± 0.02
TTTTTTGATGCTGCTGCTCATTTTTTTTTTTTTTTCAAAG [GAAAC]	0.535 ± 0.017	0.396 ± 0.026

Source: the supplement of paper PMC9428881
